Assay results: paper PMC2686266

Target: the mutant kinases (GST-fused NIK1 kinase domains with single and double amino acid replacements in the A-loop, except T474D)

B1: His-tagged nuclear shuttle protein (NSP) of Cabbage leaf curl virus (CaLCuV), Q96706 1-256 (natural protein)
chain: MYPTKFRRGVSYSQRRFVSRNQSSKRGTFVRRTDGKRRKGPSSKAHDEPKMKLQRIHENQYGPEFVMTHNSALSTFINFPVLGKIEPNRSRSYIKLNRLSFKGTVKIERVHADVNMDGVISKIEGVFSLVIVVDRKPHLSSTGGLHTFDEIFGARIHSHGNLAITPGLKDRYYVLHVLKRVLSVEKDTLMVDLEGSTTISNRRYNCWASFNDLEHDLCNGVYANISKNAILVYYCWMSDAMSKASTFVSYDLDYLG
- further reduction of the residual autophosphorylation activity of the mutant kinases in vitro in the presence of GST-NSP: 50 to 70%
